Source: patent publication US20150184159A1, “USE OF COX-3 BINDING MOLECULES FOR MODULATING AUTOPHAGY” (priority 2013, published 2015)

T1: canine COX-3 (Canis lupus familiaris, UniProt Q8HZR1)
T1 sequence (Q8HZR1 1-633 isoform Q8HZR1-2): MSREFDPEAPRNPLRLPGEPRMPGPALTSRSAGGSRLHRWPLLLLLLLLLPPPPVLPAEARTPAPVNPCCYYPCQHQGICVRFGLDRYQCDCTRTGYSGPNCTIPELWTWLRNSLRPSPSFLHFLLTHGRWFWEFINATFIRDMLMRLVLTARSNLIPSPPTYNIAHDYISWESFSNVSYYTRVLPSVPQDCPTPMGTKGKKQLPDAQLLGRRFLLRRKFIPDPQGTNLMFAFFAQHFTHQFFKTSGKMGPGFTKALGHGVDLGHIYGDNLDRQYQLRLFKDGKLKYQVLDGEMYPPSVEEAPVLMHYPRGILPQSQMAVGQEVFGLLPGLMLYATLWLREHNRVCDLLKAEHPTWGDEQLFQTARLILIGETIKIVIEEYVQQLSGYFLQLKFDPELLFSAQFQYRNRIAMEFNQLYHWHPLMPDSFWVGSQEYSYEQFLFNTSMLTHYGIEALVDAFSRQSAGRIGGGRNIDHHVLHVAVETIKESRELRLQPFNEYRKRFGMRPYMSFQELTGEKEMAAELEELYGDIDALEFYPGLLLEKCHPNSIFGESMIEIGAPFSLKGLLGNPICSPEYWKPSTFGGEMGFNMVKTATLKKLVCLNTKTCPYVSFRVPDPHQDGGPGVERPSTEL


Assays:
canine COX-3 = biological target: T1, canine COX-3; conditions: cited from earlier work
[1] = biological target: C-terminal RFP labeled ATG9
[2] = tested on: encephalomyocarditis virus (EMCV); assay: EMCV replication in transfected CHO cells, plaque-forming assay; format: cell-based; conditions: compared to Empty vector
Excerpt: The rCOX constructs being related to ancient unicellular COX and evidence showing their involvement in the formation of innate immune responsive autophagic structures. EMCV is a positive strand RNA picornavirus implicated in human febrile illness. Also, the mTOR small molecule inhibitor rapamycin is shown to stimulate protein synthesis of EMCV proteins (Ref) and that autophagy specifically is shown to promote EMCV viral replication. We infected rCOX or/and cNuc transfected/co-transfected CHO cells with EMCV to determine their influence in viral replication. The media was collected and plaque forming assays were then performed and plaques were counted compared to Empty vector plaque counts.
CHO cells were seeded to the night before infection to complete confluence. Cells were washed twice with DMEM F/12 media before infection. Virus were placed on top of cells and allowed to absorb for 1 hour angling the cells every 10 minutes to ensure cells were fully covered. After adsorption the media was remove and cells washed twice with DMEM F/12 media. Agar at 2% in PBS was melted and mixed with warm DMEM/F12 with 20% FBS and then laid on top of the cells. The virus was allowed to replicate for 36 hours and then 5 mg/mL of MTT in PBS was added to visualize the cells. Plaques were counted using light microscope.

Row | Molecule | co-localisation by confocal microscopy (Pearson coefficient) (Pearson coefficient) [1] | other results
1 | CC(=O)Nc1ccc(O)cc1 [acetaminophen] | – | effect on canine COX-3 (canine COX-3): specifically inhibited
2 | FLAG tagged rc44 (translationally recoded rat COX-3 44 kD protein) (from UniProt Q63921) (enzyme) | 0.928 | –
3 | FLAG tagged rc50 (translationally recoded rat COX-3 50 kD protein) (from UniProt Q63921) (enzyme) | 0.954 | –
4 | FLAG tagged rc57 (translationally recoded rat COX-3 57 kD protein) (from UniProt Q63921) (enzyme) | 0.973 | –
5 | r44: translationally recoded 44 kD rat COX-3 protein, expressed by transfection in CHO cells (protein) MGPGFTKALGHGVDLGHIYGDSLERQYHLRLFKDGKLKYQVLDGEVYPPSVEQASVLMRYPPGVPPEKQMAVGQEVFGLLPGLMLFSTIWLREHNRVCDLLKEEHPTWDDEQLFQTTRLILIGETIKIIIEEYVQHLSGYFLQLKFDPELLFRAQFQYRNRIALEFNHLYHWHPLMPDSFQVGSQEYSYEQFLFNTSMLVDYGVEALVDAFSRQRAGRIGGGRNFDYHVLHVAEDVIKESREMRLQSFNEYRKRFGLKPYTSFQEFTGEKEMAAELEELYGDIDALEFYPGLMLEKCQPNSLFGESMIEMGAPFSLKGLLGNPICSPEYWKPSTFGGDVGFNIVNTASLKKLVCLNTKTCPYVSFRVPDYPGDDGSVFVRPSTEL | – | number of EMCV virions [2]: doubled
6 | r57: translationally recoded 57 kD rat COX-3 protein, expressed by transfection in CHO cells (protein) MRLVITVRSNLIPSPPTYNTAHDYISWESFSNVSYYTRILPSVPKDCPTPMGTKGKKQLPDIHLLAQRLLLRREFIPGPQGTNVLFAFFAQHFTHQFFKTSGKMGPGFTKALGHGVDLGHIYGDSLERQYHLRLFKDGKLKYQVLDGEVYPPSVEQASVLMRYPPGVPPEKQMAVGQEVFGLLPGLMLFSTIWLREHNRVCDLLKEEHPTWDDEQLFQTTRLILIGETIKIIIEEYVQHLSGYFLQLKFDPELLFRAQFQYRNRIALEFNHLYHWHPLMPDSFQVGSQEYSYEQFLFNTSMLVDYGVEALVDAFSRQRAGRIGGGRNFDYHVLHVAEDVIKESREMRLQSFNEYRKRFGLKPYTSFQEFTGEKEMAAELEELYGDIDALEFYPGLMLEKCQPNSLFGESMIEMGAPFSLKGLLGNPICSPEYWKPSTFGGDVGFNIVNTASLKKLVCLNTKTCPYVSFRVPDYPGDDGSVFVRPSTEL | – | inhibition of virion production [2]: 40%
